Measurements: the RNAGym collection of RNA variant scans (doi:10.1073/pnas.2313332121)

B1: TPR t1 (parent)
chain: GACCAAUCUGCCCUCAGAGCUCGAGAACAUCUUCGGAUGCAGAGGAGGCAGGCUUCGGUGGCGCGAUAGCGCCAACGUCCUCAACCUCCAAUGCAUCCCACCACAUGAUGAUGCCUGAAGAGCCUUGGUUUUUUG

Variants of: B1
Assay: polymerase ribozyme fitness, log enrichment relative to wild type (log ratio); higher = more active; in vitro selection for triplet polymerase activity
Outline: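 One round of in vitro selection, in triplicate, was applied to PCR-built, transcribed mutant libraries of each subunit of a heterodimeric triplet polymerase ribozyme. The steps were annealing with a biotinylated primer, partner subunit and triplets, incubation frozen at −7 °C, gel excision of extended constructs, streptavidin-bead capture and RT-PCR. Fitness is the logarithm, base 2, of genotype enrichment over wild-type enrichment from inverse-variance-weighted replicate averages of Illumina-sequenced inputs and outputs, keeping genotypes with ≥10 input reads and ≥1 read per output.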

Variant	polymerase ribozyme fitness (log ratio)
GACCAAUCUGCCCUCAGAGCUCCAGAACAUCUUCGGGUGAAGAGAAGGCAGGCUUCAGUGGCGCGAUAGCGCCAACGUCCUCAACCUCCAAUGCAUCCCACCACAUGAUGAUGACUGUAGAGCCUUGGUUUUUUG [G23C A37G C40A G45A G57A C114A A118U]	-7.04
GACCAAUCUGCCCUCAGAGCUCUAGAACAUCUUCGGAUGCAGAGGAGGCAGGCUUCGGUGGCGCGAUAGCGCAAACGUCCUCAACCUCCAAUGCAUCCCACCACAUGAUGAUGCCUGAAGAGCCUUGGUUUUUUG [G23U C73A]	-6.12
GACCAAUCUGCCCUCAGAGCUCUAGAACAUCUUCGGAUGCAGAGGAGGCAGGCUUCGGUGGCGCGAUAGCGCCAACGUCCUCAACCUCCAAUGCAUCCCACCACAUGAUGAUGCCUGAAGAGCCUUGGUUUUUUG [G23U]	-6.05
GACCAAUCUGCCCUCAGAGCUCCAGAACAUCUUCGGAUGCAGAGGAGGCAGGCUUCGGUGGCGCGAUAGCGCCAACGUCCUCAACCUCCAAUGCAUCCCACCACAUGAUGAUGCCUGAAGAGCCUUGGUUUUUUG [G23C]	-6.4
GACCAAUCUGCCCUCAGAGCUCAAGAACAUCUUCGGAUGCAGAGGAGGCAGGCUUCGGUGGCGCGAUAACGCCAACGCCCUCAACCUCCAAUGCAUCCCACCACAUGAUGAUGCCUCAAGAGCCUUGGUUUUUUG [G23A G69A U78C G117C]	-6.47
GACCAAUCUGCCCUCAGAGCUCCAGAAUAUCUUCGGAUGCAGAGGAGGCAGGCUUCGGUGGCGCGAUAGCGCCAACGUCCUCAACCUCCAAUGCAUCCCACGACAUGAUGAAGCAUGAAAAGCCUUGGUUUUUUG [G23C C28U C102G U112A C115A G120A]	-8.12
GACCAAUCUGCCCUCAGAGCUCAAGAACAUCUUCGGAUGCAGAGGAGGCAGGCUUCGGUGGCGCGAUAUCGCCAACGUCCUCAACCUCCAAUGCAUCCCACCACAUGAUGAUGCCUGAAGAGCCUUGGUUUUUUG [G23A G69U]	-3.97
GACCAAUCUGCCCUCAGAGCUCUAGAACAUCUUCGGAUGCAGAGGAGGCAGGCUUCGGUGGCGCGAUAGGGCCAACGUCCUCAACCUCCACUGCAUCUCACCACAUGAUGAUGCCUGAAGAGCCUUGGUUUUUUG [G23U C70G A91C C98U]	-7.47
GACCAAUCUGCCCUCAGAGCUCCAGAACAUCUUCGGAUGCAGAGGAGGCAGGCUUCGGUGGCGCGAUAGCGCCAACGUCCUCAAGCUCCAAUGCAUACCACCACAUGAUGAUGCCUGAACAGCCUUGGUUUUUUG [G23C C85G C97A G120C]	-7.88
GACCAAUCUGCCCUCAGAGCUCUAGAACAUCUUCGGAUGCAGAGGAGGCAGGCUUCGGUGGAGCGAUAGCGCCAACGUCCUCAACCUCCAAUGCAUCCAACCACAUGAUGAUUCCUGAAGAGCCUUCGUUUUUUG [G23U C62A C99A G113U G127C]	-5.56
GACCAAUCUGCCCUCAGAGCUCAAGAACAUCUUCGGAUGCAGAGGAGGCAGGCUUCGGUGGCGCGAUAGCGUCAACGUCCUCAAUCUCCAAUGCAUCCCACCACAUGAUGAUGCCUGAAGAGCCUUGGUUUUUUG [G23A C72U C85U]	-6.02
GACCAAUCUGCCCUCAGAGCUCAAGAACAUCUUCGGAUGCAGAGGAGGCAGGCUUGGGUGGCGCGAUAGCGCCAAUGUCCUCAACCUCCAAUGCAUCCCACCACAUGAUAAUGCCUAAAGAGCGUUGGUUUUUUG [G23A C56G C76U G110A G117A C124G]	-7.16
GACCAAUCUGCCCUCAGAGCUCCAGAACAUCUUCGGAUGCAGAGGAGGCAGGCUUCGGUGGCGUGAUAGCGCCAACGUCCUCAACCUCCAAUGCAUCCCACCACAUGAUGAUGCCUGAAUAGCCUUGGUUUUAUG [G23C C64U G120U U133A]	-7.42
GACCAAUCUGCCCUCAGAGCUCAAGAACAUCUUCGGAUGCAGAGGAGGCAGGCUUCGGUGGCGCGAUAGCGCCAACGUCCUCAACCUCCAAUGCAUCCCACCACAUGAUGAUGCCUGAAGAGCAUUGGUUUUUUG [G23A C124A]	-1.95
GACCAAUCUGCCCUCAGAGCUCAAGAACAUCUUCGGAUGCAGAGGAGGCAGGCUUCGGUGGCGCGAUAGAGCCAACGUCCUCAACCUCCAAUGCAUCCCACCACAUGAUGAUGCCUGAAGAGCCUUGGUUUUUUG [G23A C70A]	-4.2
GACCAAUCUGCCCUCAGAGCUCAAGAACAUCUUCGGAUGCAGAGGAGGCAGGCUUCGGUGGCGCGAUAGUGCCAACGUCCUCAACCUCCAAUGCAUCCCACCACAUGAUGAUGCCUGAAGAGCCUUGGUUUUUUG [G23A C70U]	-4.99
GACCAAUCUGCCCUCAGAGCUCAAGAACAUCUUCGGAUGCAGAGGAGGCAGGCUUGGGUGGCGCGAUAGCGCCAACGUCCUCAACCUCCAAUGCUUCCCACCACAUGAUGAAGCCUGAAGAGCCUUCGUUUUUUG [G23A C56G A95U U112A G127C]	-6.5
GACCAAUCUGCCCUCAGAGCUCCAGAACAUCUUCGGAUGCAGAGGAGGCAGGCUUCGGUGGCGCGAUAGCGCCAACGUCCUCAACCUCCAAUGCAUCCCACCACAUGAUCAUGCCUGAAGAGCCUUGGUUUUUUG [G23C G110C]	-7.42
GACCAAUCUGCCCUCAGAGCUCAAGAACAUCUUCGGAUGCAGAGGAGGCAGGCUUCGGUGGCGCGAUAGCGCCAACGUCCUCAACCUCCAAUGCAUCCCACCACAUGAUGAUCCCUGAAGAGCCUUGGUUUUUUG [G23A G113C]	-5.19
GACCAAUCUGCCCUCAGAGCUCUAGAACAUCUUCGGAUGCAGAGGAGGCAGGCUUCGGUGGCGCGAUAGCGUCAACGUCCUCAACCUCCAAUGCAUCCCACCACAUGAUGAUGCCUGAAGAGCCUUGGUUUUUUG [G23U C72U]	-6.65
GACCAAUCUGCCCUCAGAGCUCAAGAACAUCUUCGCAUGCAGAGGAGGCAGGCUUCGGUGGCGCGAUAGCGCCAACGUCCUCAACCUCCAAUGCAUCCCACCACAUGAUGAUGCCUGAAGAGCCUUGGUUUUUUG [G23A G36C]	-6.17

Variant	polymerase ribozyme fitness (log ratio)
GACCAAUCUGCCCUCAGAGCUCAAGAACAUCUUCGAAUGCAGAGGAGGCAGGCUUCGGUGGCGCGAUAGCGCCAACGUCCUCAACCUCCAAUGCAUCCCACCACAUGAUGAUGCCUGAAGAGCCUUGGUUUUUUG [G23A G36A]	-5.32
GACCAAUCUGCCCUCAGAGCUCUAGAACAUCUUCGGAUGCAGAGGAGGCAGGCUUUGGUGGCGCGAUAGGGCCAUCGACCUCAACCUCCAAUGCAUCCAACCACAUGAUGAAGCCUGAAGAGCCUUGGUUUUUUG [G23U C56U C70G A75U U78A C99A U112A]	-6.9
GACCAAUCUGCCCUCAGAGCUCCAGAACAUCUUCGGAUGCAGAGGAGGCAGGCUUCGGUGGAGCGAUAGCGCCAACGUCCUCAACCUCCAAUGCAUCCUACCACAUGAUGACGCCUGAAGAGCCUUGGUUUUUUG [G23C C62A C99U U112C]	-6.42
GACCAAUCUGCCCUCAGAGCUCAAGAACAUCUUCGGAUGCAGAGGAGGCAGGCUUCGGUGGCGCGAUAUCGCCAACGUCCUCAACCUCCUAUGCAUCCCACCACAUGAUGAUGCCUGAAGAGCUUUGGUUUUUUG [G23A G69U A90U C124U]	-5.33
GACCAAUCUGCCCUCAGAGCUCAAGAACAUCUUCGGAUGCAGAGGAGGCAGGCUUCGGUGGAGCGAUAGCGCCAACGUCCUCAACCUCCAAUGCAUCCCACCACAUGAUGAUGCCUGAAGAGCCUUGGUUUUUUG [G23A C62A]	-7.09
GACCAAUCUGCCCUCAGAGCUCAAGAACAUCUUCGGAUGCAGAGGAGGCAGGCUUCGGUGGCGCGAUAGCGCCAACGUCCUCAACCUCCAAUGAAUCCCACCACAUGAUGGUGCCUGAAGAGCCUUGGUUUUUUG [G23A C94A A111G]	-5.95
GACCAAUCUGCCCUCAGAGCUCCAGAACAUCUUCGGAUGCAGAGGAGGCAGGCUUCGGUGGCGCGAUAGCGCCAACGUCCUCAACCUCCAAUACAUCCCACCACAUGAUGAUGCCUGAAGAGCCUUGGUUUUUUG [G23C G93A]	-6.59
GACCAAUCUGCCCUCAGAGCUCAAGAACAUCUUCGGAUGCAGAGGAGGCAGGCUUCGGUGGCGCGAUAGCGCCAACGUCCUCAACCUCCAAUGCAUCCCACCACAUGAUGAUGCUUGAAGAGCCUUGGUUUUUUG [G23A C115U]	-3.88
GACCAAUCUGCCCUCAGAGCUCCAGAACAUCUUCGGAUGCAGAGGAGGCAGGCUUCGGUGGCGCGAUAGCGCCAACGUCCUCAACCUCCAAUGCAUCCCACCACAUGAUGAUGCCUGAAGAGUCUUGGUUUUUUG [G23C C123U]	-5.53
GACCAAUCUGCCCUCAGAGCUCAAGAACAUCUUCGGAUGCAGAGGAGGCAGGCUUCGGUAGCGCGAUAGCGCCAACGUCCUCAACCUCCAAUGCAUCCCACCACAUGAUGAUGCCUGAAGAGCCUUGGUUUUUUG [G23A G60A]	-4.52
GACCAAUCUGCCCUCAGAGCUCUAGAACAUCUUCGGAUGCAGAGGAGGCAGGCUUUGGUGGCGCGAUAGCGCCAACGUCCUCAACCUCCAAUGCAUCCCACCACAUGAUGAUGCCUGAAGAGCCUUGGUUUUUUG [G23U C56U]	-6.5
GACCAAUCUGCCCUCAGAGCUCAAGAACAUCUUCGGAUGCAGAGGAGGCAGGCUUCGGUGGCGCGAUAGCGCCAACGUCCUCAACCUCCAAUGCAUCCCACCACAUGAUGAAGCCUGAAGAGCCUUGGUUUUUUG [G23A U112A]	-4.45
GACCAAUCUGCCCUCAGAGCUCAAGAACAUCUUCGGAUGCAGAGGAGGCAGGCUUCGGUGGCCCGAUAGCGCCAAUGUCCUCAACCUCCAAUGCAUCCCAUCACAUGAUGGUGCCUGAAGAGCCUUGGUUUUUUG [G23A G63C C76U C101U A111G]	-5.22
GACCAAUCUGCCCUCAGAGCUCAAGAACAUCUUCGGAUGCAGAGGAGGCAGGCUUCGGUGGCCCGAUAGCGCCAACGUCCUCAACCUCCAAUGCAUCCCAUCACAUGAUGGUGCCUGAAGAGCCUUGGUUUUUUG [G23A G63C C101U A111G]	-6.12
GACCAAUCUGCCCUCAGAGCUCUAGCACAUCUUCGGAUGCAGUGGAGGCAGGCUUCGGUGGCGCGAUAGCGCCAACGUCCUCAACCUCCAAUACAUCCCACCACAUGAUGAUGCCUCAAGAGCCUUGGUUUUUUG [G23U A26C A43U G93A G117C]	-7.04
GACCAAUCUGCCCUCAGAGCUCUAGAACAUCUUCGGAUGCAGUGGAGGCAGGCUUCGGUAGCGCGAUAGCGCCAACGUCCUCAACCUCCAAUGCAUCCCACCACAUGAUGAUGCCUGAAGAGCCUUGGUUUUUUG [G23U A43U G60A]	-7.42
GACCAAUCUGCCCUCAGAGCUCAAGAACAUCUUCGGAAGCAGAGGAGGCAGGCUUCGCUGGCGCGAUAGCGCCAACGUCCUCAACCUCCAAUGCAUCCCACCACAUGAUGAUGCCUGAAGCGCAUUGGUUUUUUG [G23A U38A G58C A121C C124A]	-6.22
GACCAAUCUGCCCUCAGAGCUCCAGAACAUCUUCGGAUGCAGAGGAGGCAGGCUUCGGUGGCGCGAUAGCGCCAACGUCCUCAACCUCCAAUGCAUCCCACCACAUGAUGAUGCCUGAAAAGCCUUGGUUUUUUG [G23C G120A]	-5.95
GACCAAUCUGCCCUCAGAGCUCAAGAACAUCUUCGGAUGCAGAGGAGGCAGGCUUCGGUGGCGCGAUAUCGCCAACGUCCUCAACCUCCAAUGCAUCCCACCACAUGAUGAUGCUUGAAGAGGCUUGGUUUUUUG [G23A G69U C115U C123G]	-6.34
GACCAAUCUGCCCUCAGAGCUCAAGAACAUCUUCGGAUGCAGAGGAGGCAGGCUUCGGUGACGCGAUAGCGCCAACGUCCUCAACCUCCAAUGCAUCCCACCACAUGAUGAUGCCUGAAGAGCCUUGGUUUUUUG [G23A G61A]	-4.6
GACCAAUCUGCCCUCAGAGCUCUAGAACAUCUUCGGAUGCAGAGGAGGCAGGUUUCGGUGGCGCGAUAGCGCCAACGUCCUCAACCUCCAAUGCAUCCCACCACAUGAUGAUGCCUGAAGAGCCUUGGUUUUUUG [G23U C53U]	-5.67
